System: MS2 coat protein
Assay: apparent KD of MS2 coat protein; higher = weaker reporter binding
Details: Eterna round: R107
Outline: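 Normalised binding curves from single clusters were fitted, and the median fit for each design is given as apparent KD. The clusters held designed RNA switches transcribed on-chip from Illumina sequencing clusters. These were titrated with SNAP-549-labelled MS2 coat protein (twofold steps from 0.7 or 1.5 nM to 3 µM, 0.8–1.5 h to 10–20 min per step) in 100 mM Tris-HCl pH 7.5, 80 mM KCl, 4 mM MgCl2, without or with constant ligand.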

[1] = input ligand: theophylline 20 uM
[2] = input ligand: tryptophan 2.4 mM
[3] = input ligand: theophylline 2 mM

UAAUAAAUAAGUGAUACCAGCGAGAAAACAUGAGGAUCACCCAUGUUCGCCCAUGUUAAGCGCCCUUGGCAGCACAAAUAUAAAA [AstrosExyTheB#1]
apparent KD of MS2 coat protein (input ligand: arginine 13.2 mM): 25.6 nM
apparent KD of MS2 coat protein [1]: 42.7 nM
apparent KD of MS2 coat protein [2]: 33.6 nM

UAAUAAGUACCGGUCCUCAGAUCCUCAUGACGAGGACCGGUACGGCCGCCACUCGAAACAUGAGGAUCACCCAUGUAAUAAUAAU [|T'-M'-Trp-Ms2|_Design 1]
apparent KD of MS2 coat protein (input ligand: arginine 13.2 mM): 17.9 nM
apparent KD of MS2 coat protein (input ligand: none): 22.2 nM
apparent KD of MS2 coat protein [1]: 29.4 nM
apparent KD of MS2 coat protein [3]: 36.9 nM
apparent KD of MS2 coat protein [2]: 18.3 nM

UAAUACCAGGUCAACGUACCAGGUGAUCAACGAGGACCGGUACGGCCGCCACUCGAAACAUGAGGAUCACCCAUGUAAGACCUGG [|T'-M'-Trp-Ms2|_Design 2_ML2]
apparent KD of MS2 coat protein (input ligand: arginine 13.2 mM): 20.9 nM
apparent KD of MS2 coat protein (input ligand: none): 134 nM
apparent KD of MS2 coat protein [1]: 185 nM
apparent KD of MS2 coat protein [3]: 141 nM
apparent KD of MS2 coat protein [2]: 61.3 nM

UAAUCCGGUCCUCGAUAAUCCUCAUGUAAACGAGGACCGGUACGGCCGCCACUCGAUAACAUGAGGAUCACCCAUGUAAUAAUAA [|T'-M'-Trp-Ms2|_Design14]
apparent KD of MS2 coat protein (input ligand: arginine 13.2 mM): 47.5 nM
apparent KD of MS2 coat protein [1]: 88.3 nM
apparent KD of MS2 coat protein [3]: 82.2 nM

UACAUAUGCCGAAGGAGCGCGAGAUGCAAAGCAUCAAUCCUUACAUGAGGAUCACCCAUGUCGCAGGUAGGUCGCGGCAUAUGUU [ArgBX 2]
apparent KD of MS2 coat protein (input ligand: arginine 13.2 mM): 26.8 nM
apparent KD of MS2 coat protein (input ligand: none): 33.6 nM
apparent KD of MS2 coat protein [1]: 44.3 nM
apparent KD of MS2 coat protein [3]: 44.7 nM
apparent KD of MS2 coat protein [2]: 36.1 nM

UACAUGAGGAUCACCCAUGUAUGAAUGGAUACCAGCGACAAUGGGCGCCCUUGGCAGCUAGUGGAUGAAGGGUGGGUACAAUACU [Exclusion Theophyline A GF4]
apparent KD of MS2 coat protein (input ligand: arginine 13.2 mM): 11.4 nM
apparent KD of MS2 coat protein (input ligand: none): 13.4 nM
apparent KD of MS2 coat protein [1]: 17.7 nM
apparent KD of MS2 coat protein [3]: 13.1 nM
apparent KD of MS2 coat protein [2]: 11.4 nM

UACAUGAGGAUCACCCAUGUCCCAUGUGAACGAGGACCGGUACGGCCGCCACUCGAAUAAGGCGGCACAUGAGGAUCACCCACAU [AstrosSSTry#2]
apparent KD of MS2 coat protein (input ligand: arginine 13.2 mM): 283 nM
apparent KD of MS2 coat protein [1]: 352 nM
apparent KD of MS2 coat protein [3]: 399 nM

UACCCAUAGGGAAGGAGCGCGCUAACAUGAGGAUCACCCAUGUAAAGGGUUUCUGGCUUAGCGCAGGUAGGUCGCCCUAUGGGUA [#10 Exclusion - Arginine B]
apparent KD of MS2 coat protein (input ligand: arginine 13.2 mM): 196 nM
apparent KD of MS2 coat protein (input ligand: none): 238 nM
apparent KD of MS2 coat protein [1]: 400 nM
apparent KD of MS2 coat protein [3]: 1050 nM
apparent KD of MS2 coat protein [2]: 654 nM

UACCGAUGAAGAAGGAGCGUACGUGGUUCACAUGAGGAUCACCCAUGUGCUUAUUGCUAGGUACAGGUAGGUCGCUUCAUCGGUA [SSAB NP+V+V2 #21]
apparent KD of MS2 coat protein (input ligand: arginine 13.2 mM): 16.5 nM
apparent KD of MS2 coat protein (input ligand: none): 15.5 nM
apparent KD of MS2 coat protein [1]: 21 nM
apparent KD of MS2 coat protein [3]: 17.1 nM
apparent KD of MS2 coat protein [2]: 15.8 nM

UACCGAUGAAGAAGGAGCGUGCGUGGUUCACAUGAGGAUCACCCAUGUGCUUUAUACUAGGCACAGGUAGGUCGCUUCAUCGGUA [SSAB NP+V+V2 #22]
apparent KD of MS2 coat protein (input ligand: arginine 13.2 mM): 24.3 nM
apparent KD of MS2 coat protein (input ligand: none): 19.4 nM
apparent KD of MS2 coat protein [1]: 30.7 nM
apparent KD of MS2 coat protein [3]: 27.8 nM
apparent KD of MS2 coat protein [2]: 23.3 nM

UACGUGGAUGCGGCCGCCACUGCUCUGAGCGAGUUGCUCUAUGGACAUGAGGAUCACCCAUGUCACAGGACCGGGCACGCUUUAA [theeternabot_sameState_MS2_Trp_B_50]
apparent KD of MS2 coat protein (input ligand: arginine 13.2 mM): 9.14 nM
apparent KD of MS2 coat protein [1]: 11.9 nM
apparent KD of MS2 coat protein [3]: 10.6 nM

UACUUGCUGACGGCCGCCACUAGUACAUGAGGAUCACCCAUGUACGGUCGCCCGGUGUGAUCCACUAGGACCGGGUCAGCAAGAU [(Trp1)-(Ms2)-(T)'-(M)'-(Trp2)_Design24]
apparent KD of MS2 coat protein (input ligand: arginine 13.2 mM): 38.4 nM
apparent KD of MS2 coat protein [1]: 42.9 nM
apparent KD of MS2 coat protein [3]: 48.5 nM

UAGAUAGAGGGAAGGAGCGCGAUAACAUAACAUGAGGAUCACCCAUGUAAGAAAUUAAUAAUGCAGGUAGGUCGCCCAAGAUGAU [Same State Arginine B gf1]
apparent KD of MS2 coat protein (input ligand: arginine 13.2 mM): 8.76 nM
apparent KD of MS2 coat protein (input ligand: none): 14.5 nM
apparent KD of MS2 coat protein [1]: 15.1 nM
apparent KD of MS2 coat protein [3]: 19 nM
apparent KD of MS2 coat protein [2]: 17.1 nM

UAUACAUGGUAUAAAUAUAUAUAUAAGAAACGAGGACCGGUACGGCCGCCACUCGUGCCGGAAACAUGAGGAUCACCCAUGUAUU [AK1 Exclusion TrypA mod IceBolt]
apparent KD of MS2 coat protein (input ligand: arginine 13.2 mM): 21 nM
apparent KD of MS2 coat protein [1]: 39.3 nM
apparent KD of MS2 coat protein [3]: 49.6 nM

UAUAUAGAUGGAAGUCAUAUAGAUGCAGAAGGAGCGUAGGAAACUACAGGUAGGUCGCUGAGGUACAUGAGGAUCACCCAUGUAG [SSArg A #18 Slice of Pi]
apparent KD of MS2 coat protein (input ligand: arginine 13.2 mM): 20.8 nM
apparent KD of MS2 coat protein (input ligand: none): 27.3 nM
apparent KD of MS2 coat protein [1]: 34.1 nM
apparent KD of MS2 coat protein [3]: 25.3 nM
apparent KD of MS2 coat protein [2]: 24.2 nM

UAUAUAUAUCACGAACUGUGGUGUAUGUCUCGAGGACCGGUACGGCCGCCACUCGCGCGGCCUCACAUGAGGAUCACCCAUGUCC [XTryp A #5]
apparent KD of MS2 coat protein (input ligand: arginine 13.2 mM): 66.9 nM
apparent KD of MS2 coat protein [1]: 132 nM
apparent KD of MS2 coat protein [3]: 107 nM

UAUCCACAUGAGGAUCACCCAUGUGAGGAAGGAGCGGUGAAUGCACCAGGUAGGUCGCCUUGCUGAGGACAGCCGGUGGAUUCGU [Exclusion - Arginine A (Freestyle 25)]
apparent KD of MS2 coat protein (input ligand: arginine 13.2 mM): 13.5 nM
apparent KD of MS2 coat protein (input ligand: none): 12.4 nM
apparent KD of MS2 coat protein [1]: 16.2 nM
apparent KD of MS2 coat protein [3]: 15.8 nM
apparent KD of MS2 coat protein [2]: 18.3 nM

UCACAUGAGGAUCACCCAUGUAUAGUUGAAGGAGCGAUCAGGAGGUCAGGUAGGUCGCAGCACAUGAGGAUCACCCAUGUAUCGA [DOUBLE!!! :-D #4]
apparent KD of MS2 coat protein (input ligand: arginine 13.2 mM): 34 nM
apparent KD of MS2 coat protein (input ligand: none): 85.2 nM
apparent KD of MS2 coat protein [1]: 72.7 nM
apparent KD of MS2 coat protein [3]: 50.4 nM
apparent KD of MS2 coat protein [2]: 59.5 nM

UCACGACGCAUGGAUACCAGCGACAUGAGGAUCACCCAUGUAUGAGGAUCAGCCAUGUUAUGCCCUUGGCAGCCACGAAGGUCAU [KNKMULLIN]
apparent KD of MS2 coat protein (input ligand: arginine 13.2 mM): 14.2 nM
apparent KD of MS2 coat protein [1]: 20.1 nM
apparent KD of MS2 coat protein [2]: 15.8 nM
